Results taken from the supplement of paper PMC6757056.
± gives the standard deviation of the averaged measurements.

B1: library; a variant is named by its letters at N, in order (parent)
chain: GCUGUCACCGGUGCUUGGUACGUUAUAUUCAGCCGGUCUGAUGAGUCUNNNNNNAGACGAAACAGC

How the values were obtained:
(6R,S)-folinic acid [1] = variants of: B1; assay: normalized RNA/DNA level without ligand (relative to sTRSVctl = 100) (log10 (% of sTRSVctl)); HEK293T overexpressing SLC46A1; higher = less ribozyme self-cleavage, higher mRNA level; settings: without (6R,S)-folinic acid; ligand present: no
Outline: (§1)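 HEK293T cells were transfected with library plasmids carrying ribozyme switches linked to an mCherry reporter, or an eGFP reporter in some ligand experiments, at 4 µg per well of a 6-well plate, with any ligand added 1 h beforehand. After 72 h, total RNA was extracted with EDTA, reverse-transcribed, amplified, barcoded and sequenced. RNA level was defined as RNA reads over DNA reads, normalized to a spiked-in non-cleaving sequence or to the top-ranked sequences. That value was multiplied by 100 and converted to log10, the top set was 25 sequences, and only sequences with ≥100 DNA reads were retained.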

(6R,S)-folinic acid [2] = variants of: B1; assay: normalized RNA/DNA level with ligand (relative to sTRSVctl = 100) (log10 (% of sTRSVctl)); HEK293T overexpressing SLC46A1; ligand concentration (+) RNA-Seq: 6 mM; higher = less ribozyme self-cleavage, higher mRNA level; settings: with (6R,S)-folinic acid; ligand present: yes
Outline: as §1

Variant | normalized RNA/DNA level without ligand (log10) ((6R,S)-folinic acid [1]) | normalized RNA/DNA level with ligand (log10) ((6R,S)-folinic acid [2])
GCUGUCACCGGUGCUUGGUACGUUAUAUUCAGCCGGUCUGAUGAGUCUCAGGCGAGACGAAACAGC [CAGGCG] | 2.02 ± 0.023 | 2.03 ± 0.029
GCUGUCACCGGUGCUUGGUACGUUAUAUUCAGCCGGUCUGAUGAGUCUCAGGCAAGACGAAACAGC [CAGGCA] | 2.022 ± 0.019 | 2.009 ± 0.0063
GCUGUCACCGGUGCUUGGUACGUUAUAUUCAGCCGGUCUGAUGAGUCUCAGGCCAGACGAAACAGC [CAGGCC] | 2.06 ± 0.046 | 2.02 ± 0.049
GCUGUCACCGGUGCUUGGUACGUUAUAUUCAGCCGGUCUGAUGAGUCUUAGGGCAGACGAAACAGC [UAGGGC] | 2.01 ± 0.0043 | 2.02 ± 0.03
GCUGUCACCGGUGCUUGGUACGUUAUAUUCAGCCGGUCUGAUGAGUCUGAGGCGAGACGAAACAGC [GAGGCG] | 2.003 ± 0.014 | 2.05 ± 0.055
GCUGUCACCGGUGCUUGGUACGUUAUAUUCAGCCGGUCUGAUGAGUCUGAGGCUAGACGAAACAGC [GAGGCU] | 2.073 ± 0.0028 | 2.04 ± 0.022
GCUGUCACCGGUGCUUGGUACGUUAUAUUCAGCCGGUCUGAUGAGUCUGAGGCCAGACGAAACAGC [GAGGCC] | 2.041 ± 0.0098 | 2.044 ± 0.012
GCUGUCACCGGUGCUUGGUACGUUAUAUUCAGCCGGUCUGAUGAGUCUCAGGAUAGACGAAACAGC [CAGGAU] | 1.9357 ± 0.0006 | 1.97 ± 0.049
GCUGUCACCGGUGCUUGGUACGUUAUAUUCAGCCGGUCUGAUGAGUCUCAGGAAAGACGAAACAGC [CAGGAA] | 1.928 ± 0.0064 | 1.99 ± 0.05
GCUGUCACCGGUGCUUGGUACGUUAUAUUCAGCCGGUCUGAUGAGUCUCAGGAGAGACGAAACAGC [CAGGAG] | 1.92 ± 0.022 | 2.03 ± 0.03
GCUGUCACCGGUGCUUGGUACGUUAUAUUCAGCCGGUCUGAUGAGUCUGAGGAGAGACGAAACAGC [GAGGAG] | 1.9 ± 0.013 | 2.031 ± 0.017
GCUGUCACCGGUGCUUGGUACGUUAUAUUCAGCCGGUCUGAUGAGUCUGAGGAAAGACGAAACAGC [GAGGAA] | 1.952 ± 0.0031 | 2.01 ± 0.03
GCUGUCACCGGUGCUUGGUACGUUAUAUUCAGCCGGUCUGAUGAGUCUGAGGACAGACGAAACAGC [GAGGAC] | 1.947 ± 0.013 | 2.014 ± 0.016
GCUGUCACCGGUGCUUGGUACGUUAUAUUCAGCCGGUCUGAUGAGUCUCAGGUCAGACGAAACAGC [CAGGUC] | 2.08 ± 0.0023 | 2.04 ± 0.045
GCUGUCACCGGUGCUUGGUACGUUAUAUUCAGCCGGUCUGAUGAGUCUCAGGUUAGACGAAACAGC [CAGGUU] | 2 ± 0.032 | 2 ± 0.022
GCUGUCACCGGUGCUUGGUACGUUAUAUUCAGCCGGUCUGAUGAGUCUUAGGCCAGACGAAACAGC [UAGGCC] | 2.047 ± 0.004 | 2.04 ± 0.044
GCUGUCACCGGUGCUUGGUACGUUAUAUUCAGCCGGUCUGAUGAGUCUUAGGCUAGACGAAACAGC [UAGGCU] | 2.03 ± 0.024 | 2.05 ± 0.061
GCUGUCACCGGUGCUUGGUACGUUAUAUUCAGCCGGUCUGAUGAGUCUUAGGCAAGACGAAACAGC [UAGGCA] | 1.972 ± 0.00036 | 2.027 ± 0.02
GCUGUCACCGGUGCUUGGUACGUUAUAUUCAGCCGGUCUGAUGAGUCUUAGGCGAGACGAAACAGC [UAGGCG] | 1.762 ± 0.0037 | 1.97 ± 0.032
GCUGUCACCGGUGCUUGGUACGUUAUAUUCAGCCGGUCUGAUGAGUCUAAGGGCAGACGAAACAGC [AAGGGC] | 2.0351 ± 4.5e-05 | 2.05 ± 0.045
